Assay: yeast display, Sf9 membrane polyspecificity reagent, FACS + sequencing; frameworks hold sequencing errors
Method in brief: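 A synthetic nanobody library was expressed on Saccharomyces cerevisiae BJ5465 by galactose induction for 36–48 hours. The library was stained for 1 hour at 4 °C with 10% biotinylated, detergent-solubilized Sf9 membrane reagent and enriched with streptavidin microbeads before FACS. Low and high (top ~1%) gates were set on anti-HA fluorescence for expression and streptavidin fluorescence for reagent binding, and each polyreactivity label reflects the gate of origin.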

Sequence | polyreactivity (PSR sort gate)
QVQLVESGGGLVQAGGSLRISCAASGFTFALYAMGWYRQAPGKERELVAAITRRGGSTYYADSVKGRFTISRDNAKNTVYLQMNSLKPEDTAVYNCAKRERAIKVSRYDSHDYWGQGTQVTVSS | high polyreactivity
QVQLVESGGGLVQAGGSLRISCAASGFTFGVYAMGWYRPAPGKEREFVASISFSGGRTYYSDSVKGRFTISRDNAKNTVYLQMNSLKPEDTAVYYCAKRWSADDYWGQGTQVTVSS | high polyreactivity
QVQLVESGGGLVQAGGSLRISCAASGFTFKRYAMGWYRQAPGKERELVAAITWRGGSTYYADSVKGRFTISRDNAKNTVYLQMNSLKPEDTAVYYCAAYSYPYWQKRPYDYWGQGTQVTVSS | high polyreactivity
QVQLVESGGGLVQAGGSLRISCAASGFTFRNYAMGWYRQAPGKEREFVASISFAGGRTYYADSVKGRFTISRDNAKNTVYLQMNSLKPEDTAVYYCAKKSYSKYDYWGQGTQVTVSS | high polyreactivity
QVQLVESGGGLVQAGGSLRISCAASGFTFWLYAMGWYRQAPGKERELVATISWSGGSTYYADSVKGRFTISRDNAKNTVYVQMNSLKPEDTAVYYCATRYRSYSVFGYGYWGQGTQVTVSS | high polyreactivity
QVQLVESGGGLVQAGGSLRISCAASGFTFYYNAMGWYRQAPGKERELVASISSNGTSTYYADSVKGRFTISRDNAKNTVYLQMNSLKPEDTAVYYCNVDIFDPRTYDYWGQGTQVTVSS | low polyreactivity
QVQLVESGGGLVQAGGSLRISCAASGGTFVPYAMGRSRQAPGKERELVARISKRGGTTYYADSVKGRFTISRDIGKNTVYLQMNSLKPEDTAVYYCAAVLPARGYYWGLGTQVTVSS | high polyreactivity
QVQLVESGGGLVQAGGSLRISCAASGIIFSPYVMGWYRQAPGKERELVAAITTGDSTNYADSVKGRFTISRDNAKNTVYLQMKSLKPEDSAVYYCNADLYVGYLYYLFDYWGQGTQVSVSS | low polyreactivity
QVQLVESGGGLVQAGGSLRISCAASGIIFSVYAMAWYRQAPGKERELVAAISYSGGRTYYADSVKGRFTISRDNAKNTVYLQMNSLKPEDTAVYYCAAGFSLYLGFEYWGQGTQVTVSS | high polyreactivity
QVQLVESGGGLVQAGGSLRISCAASGIIFSYYAMGWYRQAPGKERELVAAIRENGGSTYYADSVKGRFTISRDNAKNTVYLQMNSLKPEDTAVYYCAVDTTYYAGYEYDYWGQGTQVTVSS | low polyreactivity
QVQLVESGGGLVQAGGSLRISCAASGITFKKNDMGWYRQAPGKERELVAAISGRGGSTYYADSVKGRFTISRDNAKNTVYLQMNSLKPEDTAVYYCAADNFKGDSYGTGTYDYWGQGTQVTVSS | high polyreactivity
QVQLVESGGGLVQAGGSLRISCAASGITFYANTMGWYRQAPGKEREFVAAISGIGGSTYYADSVKGRFAISRDNAKNTVYLQMNSLKPEDPAVYYCNADVYYFLFGTFDYWGQGTQVTVSS | low polyreactivity
QVQLVESGGGLVQAGGSLRISCAASGITYKEYAMGWYRQAPGKERELVAAISISGGSTYYADSVKGRFTISRDNAKNTFYLQMNSLKPEDTAVYFCAADYAEYEYGDYYWGQGTQVTVSS | low polyreactivity
QVQLVESGGGLVQAGGSLRISCAASGLIFNFNALGWYRQAPGKERELVAAITRSGSTDYADSVKGRFTISRDNAKNTVYLQLNSLKPEDTAVYYCAAEFYLRRFKVTKRYWFDYWGQGTQVTVSS | low polyreactivity
QVQLVESGGGLVQAGGSLRISCAASGLTLTSNDMGWYRQAPGKEREFVASITWSGGSTSYADSVKGRFTISRDNAKNTVYLQMNSLKPEDTAVYYCAARPRYFSKSWRGYYYWGQGTQVNVSS | high polyreactivity
QVQLVESGGGLVQAGGSLRISCAASGLTSYSYAMGWYRQAPGKERELVAAITVNGGRTYYADSVKGRFTISRDNAKNTVYLQMNSLKPEDTAVYYCAAREVTGRPRSYYYWGQGTQVTVSS | low polyreactivity
QVQLVESGGGLVQAGGSLRISCAASGNIIRKYAMGWYRQAPGKEREFVAAISSSGGRTYYADSVKGRFTISRDNAKNTVYLQMNSLKPEDTAGYYCARPYSYAYVLGDYWGQGTQVTVSS | high polyreactivity
QVQLVESGGGLVQAGGSLRISCAASGRIFFIKAMGWYRQAPGKERELVAAIRRDTRTYYADSVKGRFTISRDNAKNTVYLQMNSLKPEDTAVYYCAADDPWHYDFDYWGQGTQVTVSS | low polyreactivity
QVQLVESGGGLVQAGGSLRISCAASGRIFGFNAMGWYRQAPGKERELVAAISRTSSSTYYADSVKGRFTISRDNAKNTVYLQMNSLKPEDTAVYYCATRYFTHGKYDYWGQGTQVTVSS | high polyreactivity
QVQLVESGGGLVQAGGSLRISCAASGRIFNSYAMGWYRQAPGKERELVASISTSGGSTYYADSVKGRFTISRDNAKNTVYLQMNSLKPEDTAVYYCARRYYPKFWYTYDSWGQGTQVTVSS | low polyreactivity
QVQLVESGGGLVQAGGSLRISCAASGRIFPFYAMGWYRQAPGKDRELVAAIRSGGGSTYYADSVKGRFTISRDNAKKTVYLQRNSLKPEDTAVYYCTARGRLGSAGRYNYWGQGTQVTVSS | high polyreactivity
QVQLVESGGGLVQAGGSLRISCAASGRIFQYYSMGWYRQAPGKERELLAAMSSRGGSTTYADSVKGRFTISRDNAKNTVYLQMNRLKPEDTAVYYCASDWYYYPQYRQRYYYWGQGTQVTVSS | high polyreactivity

Reference: the nanobody polyreactivity screen of Harvey et al. (2022)
